Measurements as given in the supplement of paper PMC10567573.

B1: EHMT1 (parent)
chain: EEINKNISDFGRQQLLPPFPSLHQ

Variants of: B1
Test: protein stability index of a GFP-peptide fusion (GPS, HEK-293T) (PSI 1-6); higher = more stable
Details: c terminus: a fixed tail appended
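Also: lentivirally expressed fusions sorted by FACS into six bins by GFP to DsRed ratio, PSI derived from sequencing read proportions per bin multiplied by bin number.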

Protein stability index, by site and new letter:
S21: R 3.21, C 3.06, H 3.58, K 3.68, V 2.82, W 1.98, M 2.01, E 3.59, P 3.54, F 2.59, N 2.73, L 2.9, Q 3.33, Y 2.54, D 3.9, I 2.62, A 2.36
Q13: S 2.75, L 2.48, M 2.94, F 2.5, V 2.45, Y 2.7, G 3, W 2.23, R 2.42, N 2.65, D 3.25, K 2.59, P 3.4
K5: Y 2.13, M 3.23, Q 3.11, V 2.68, W 2.6, R 2.57, L 2.72, A 3.05, G 2.71, C 2.54, D 3.37, F 2.28, E 3.15
H23: K 3.61, M 2.48, Q 3.02, W 2.6, C 2.66, G 3.14, R 3.08, N 3.07, Y 2.14, A 3.4, L 2.53, P 3.17, E 3.59, T 3.39, D 3.85, F 2.38, V 2.97
E1: V 2.22, D 2.58, K 2.74, R 2.55, H 2.56, L 2.42, Y 2.11, T 2.9, N 2.44, G 2.7, W 1.91
P20: K 3.3, S 3.22, F 2.61, D 3.5, Y 2.59, A 2.82, T 3.01, E 3.73, N 3.32, M 2.51, I 2.69, L 2.73, C 2.87, V 3.02
P18: W 3.06, C 3.16, H 3.15, M 2.95, G 3.31, T 2.92, R 3.57, V 3.34, D 3.46, F 2.91
S8: L 2.12, Y 2.53, K 3.02, F 2.64, H 2.77, M 2.72, R 2.71, E 2.86, C 2.62, W 2.02, I 2.82, D 3.07, P 3.12, V 3.21
L15: V 3.62, E 3.65, K 3.07, P 2.92, A 2.81, S 2.82, Q 3.3, C 2.54, D 3.81, N 2.87, G 3.37, W 2.5, M 2.71, H 2.96, R 3.28
F10: D 3.91, T 2.86, L 2.91, K 3.45, V 3.04, R 2.88, H 2.99, M 3.04, E 3.37, I 2.52, Y 3.11, G 3.39, W 2.59, C 2.6
Q24: H 2.43, W 3.45, P 3.43, R 2.96, T 2.34, L 3.78, F 2.81, S 2.5, V 2.65, A 2.42, D 4.02, K 3.55, M 2.77, G 2.53, I 2.17
L22: S 4.33, A 3.73, K 4.33, P 3.91, C 3.82, V 3.21, E 4.75, I 3.18, D 4.7, M 3.1, T 3.85, H 3.42, Y 2.47, N 4.04, Q 3.65, G 3.81
D9: M 2.02, I 2.21, G 2.65, H 2.41, R 2.22, K 2.18, S 2.42, A 2.38, Y 2.4, W 2.15, T 2.61, V 2.31, L 2.58, P 2.45
I3: P 2.68, T 3.11, Y 2.7, N 3.31, S 3.13, A 3.1, E 3.78, G 3.01, R 2.69, W 2.39, M 2.74, V 2.9, C 2.76
L16: M 2.79, V 3.33, F 2.42, N 3.71, W 2.65, P 3.34, S 3.73, A 3.57, K 3.05, C 3.26, Q 3.83, R 3.23, D 4, G 3.85, I 2.82
G11: L 1.88, N 3, R 2.48, T 2.53, S 2.73, D 2.97, H 2.43, F 2.02, V 2.24, K 2.59, M 2.85, A 2.88, C 1.94
Q14: T 2.45, W 2.03, L 2.31, A 2.74, M 2.49, S 2.62, C 2.18, N 2.54, F 2.02, H 2.29, I 2.77, E 3
N4: W 2.15, P 2.69, R 2.73, M 2.52, G 2.48, L 2.69, T 2.33, H 2.94, F 2.15, I 2.02, A 2.63, K 2.55, Q 2.7, V 2.53
E2: F 1.74, H 1.96, W 1.73, K 2.64, N 2.29, G 2.51, T 2.85, I 2.14, A 2.3, C 2.35, Y 1.58, V 2.12, P 2.65, M 2.24, L 2.21, D 2.72
I7: V 2.98, T 2.63, W 2.52, M 3.03, A 2.96, E 3.38, R 2.42, H 2.73, D 3.21, C 2.88, G 3.3, P 2.38, K 2.79, N 3.72
F19: E 4.39, H 3.69, W 2.01, N 4.37, K 3.99, S 4.19, T 4.04, P 4.41, I 3.61, V 3.76, L 3.54, G 4.05
N6: T 2.65, Y 2.09, H 2.4, W 1.76, E 2.91, S 3.15, K 2.38, F 1.91, A 2.85, P 2.92, I 2.17, G 2.91, R 2.1, D 3.15
P17: N 2.54, A 2.79, G 2.83, W 2.02, R 2.94, Q 3.27, K 3.09, M 2.27, C 2.84, S 3.22, V 2.18, D 2.74
R12: F 2.23, V 3.25, I 2.93, Y 2.86, L 2.74, Q 2.97, D 3.64, M 2.47, W 2.24, T 3.52, P 3.38, N 3.5, S 3.12, H 2.77, G 3.15, A 3.2
